# Reference: paper PMC6827488 (ACS infectious diseases, 2019)
# B1: synthetic antigen-binding fragment sFab H3 (Fab, V domains shown)
# VH: EVQLVESGGGLVQPGGSLRLSCAASGFNISYYYIHWVRQAPGKGLEWVASIYPYYGYTSYADSVKGRFTISADTSKNTAYLQMNSLRAEDTAVYYCARGSSWYGAHAFDYWGQGTLVTVSS
# VL: DIQMTQSPSSLSASVGDRVTITCRASQSVSSAVAWYQQKPGKAPKLLIYSASSLYSGVPSRFSGSRSGTDFTLTISSLQPEDFATYYCQQGYYYAYSLITFGQGTKVEIK
# Biological target: maltose-binding protein (MBP)-tagged mVP35 IID (Marburg virus, UniProt P35259)
# Assay: pull-down
# Sequence of maltose-binding protein (MBP)-tagged mVP35 IID (P35259 200-329): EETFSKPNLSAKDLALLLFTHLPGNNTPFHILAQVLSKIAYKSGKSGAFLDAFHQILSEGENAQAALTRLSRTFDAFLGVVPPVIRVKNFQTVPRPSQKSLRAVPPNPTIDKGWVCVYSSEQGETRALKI
binder,measurement,value
B1,binding result,binds
